Drawing on US8008547B2, “Glyphosate-N-acetyltransferase (GAT) genes” (E.I. duPont de Nemours, priority 2000, dated 2011), this text covers Kcat and Km for 35 molecules.

The nature of the series: Standard protocol for determination of kcat and KM (continuous spectrophotometric assay, Acetyl CoA hydrolysis at 235 nm). The series is classed as biochemical. Particulars: purified protein, about 23° C., 0.2 mM acetyl CoA; for Kcat: 20 mM HEPES pH 6.8, 10% ethylene glycol; for Km: pH 6.8, glyphosate 0.125 to 10 mM. The method in brief:
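KM from initial rates over 0.125–10 mM glyphosate, fitted by Lineweaver-Burke transformation of Michaelis-Menten; kcat/KM computed as kcat divided by KM. Continuous spectrophotometric read of acetyl-CoA hydrolysis at 235 nm.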

Changes are numbered by the printed parent chain.

B1: SEQ ID NO: 303: GAT polypeptide (protein)
chain: MIEVKPINAEDTYEIRHRILRPNQPLEACKYETDLLRGAFHLGGYYRGKLISIASFHQAEHPELEGQKQYQLRGMATLEGYREQKAGSTLIRHAEELLRKKGADLLWCNARTSARGYYKKLGFSEQGEVYDIPPTGPHILMYKKLT
modifications: 13_7C1
notes: GAT polypeptide
For B1, the Kcat was found to be 0.802 s⁻¹ and the Km turned out to be 1500 µM.

B2: SEQ ID NO: 311: GAT polypeptide (protein)
chain: B1 chain with R37G, G80E, R115S
modifications: 14_12H6
notes: GAT polypeptide
Take B2: the Kcat stood at 1.52 s⁻¹ and the Km came out at 900 µM.

B3: SEQ ID NO: 322: GAT polypeptide (protein)
chain: B1 chain with H57N, G80E, E96A, R115S, I132T, T135V
modifications: 14_7G1
notes: GAT polypeptide
In the case of B3, the Kcat is 2.278 s⁻¹ and the Km came out at 660 µM.

B4: SEQ ID NO: 331: GAT polypeptide (protein)
chain: B1 chain with R37G, A39T, I51V, R115S, E128K, T135V
modifications: 15_12D8
notes: GAT polypeptide
On to B4, for which the Kcat was found to be 0.995 s⁻¹ and the Km was 1300 µM.

B5: SEQ ID NO: 318: GAT polypeptide (protein)
chain: B1 chain with R37G, A39T, H57N, E96A, R115S, I132T, T135V
modifications: 14_6D4
notes: GAT polypeptide
B5: the Kcat was determined as 4.27 s⁻¹ and the Km came to 1000 µM.

B6: SEQ ID NO: 327: GAT polypeptide (protein)
chain: B1 chain with I51V, H57N, K100R, R115S
modifications: 15_11F9
notes: GAT polypeptide
For the molecule B6, the Kcat was found to be 1.27 s⁻¹ and the Km was determined as 1000 µM.

B7: SEQ ID NO: 263: GAT polypeptide (protein)
chain: B1 chain with A39T, R115S, T135V
modifications: 13_10F6
notes: GAT polypeptide
In the case of B7, the Kcat came to 0.81 s⁻¹ and the Km came to 1300 µM.

B8: SEQ ID NO: 314: GAT polypeptide (protein)
chain: B1 chain with I51V, E96A, R115S, E128G, T135A
modifications: 14_3B2
notes: GAT polypeptide
Take B8: the Kcat stood at 1.14 s⁻¹ and the Km worked out at 850 µM.

B9: SEQ ID NO: 308: GAT polypeptide (protein)
chain: B1 chain with I51V, R115S, I132T, T135V
modifications: 14_10H9
notes: GAT polypeptide
Regarding B9, the Kcat worked out at 2.12 s⁻¹ and the Km worked out at 1100 µM.

B10: SEQ ID NO: 305: GAT polypeptide (protein)
chain: B1 chain with R37G, A39T, G80E, R115S, T135V
modifications: 13_9F6
notes: GAT polypeptide
With B10, the Kcat stood at 0.983 s⁻¹ and the Michaelis constant (Km) stood at 1300 µM.

B11: SEQ ID NO: 316: GAT polypeptide (protein)
chain: B1 chain with K30M, R37G, A39T, I51V, H57N, R115S, I132T, T135V, I139V
modifications: 14_6A8
notes: GAT polypeptide
As for B11, the Kcat is 0.728 s⁻¹ and the Km came to 780 µM.

B12: SEQ ID NO: 312: GAT polypeptide (protein)
chain: B1 chain with R37G, A39T, H57N, R115S, E128G, T135V
modifications: 14_2B6
notes: GAT polypeptide
Take B12: the Kcat is 0.57 s⁻¹ and the Km is 630 µM.

B13: SEQ ID NO: 321: GAT polypeptide (protein)
chain: B1 chain with R37G, A39T, I51V, E60K, R115S, I132T, T135V
modifications: 14_7A9
notes: GAT polypeptide
As for B13, the Kcat is 4.098 s⁻¹ and the Km turned out to be 3200 µM.

B14: SEQ ID NO: 306: GAT polypeptide (protein)
chain: B1 chain with G80E, R115S, I132T, T135V
modifications: 14_10C9
notes: GAT polypeptide
For the molecule B14, the Kcat was determined as 2.12 s⁻¹ and the Km turned out to be 900 µM.

B15: SEQ ID NO: 317: GAT polypeptide (protein)
chain: B1 chain with R37G, A39T, R115S, E128G, I132M, T135V
modifications: 14_6B10
notes: GAT polypeptide
As for B15, the Kcat turned out to be 2.245 s⁻¹ and the Km was 1400 µM.

B16: SEQ ID NO: 332: GAT polypeptide (protein)
chain: B1 chain with A39T, I51V, G80E, R115S, T135V
modifications: 15_12D9
notes: GAT polypeptide
In the case of B16, the Kcat amounted to 0.995 s⁻¹ and the Km worked out at 1400 µM.

B17: SEQ ID NO: 336: GAT polypeptide (protein)
chain: B1 chain with R37G, A39T, I51V, G80E, R115S
modifications: 15_4H3
notes: GAT polypeptide
As for B17, the Kcat is 1.56 s⁻¹ and the Km worked out at 1000 µM.

B18: SEQ ID NO: 328: GAT polypeptide (protein)
chain: B1 chain with E96A, R115S
modifications: 15_11H3
notes: GAT polypeptide
B18: the Kcat is 1.03 s⁻¹ and the Km amounted to 1000 µM.

B19: SEQ ID NO: 330: GAT polypeptide (protein)
chain: B1 chain with K30M, I51V, R115S, I132T, T135V
modifications: 15_12D6
notes: GAT polypeptide
As to B19, the Kcat is 2.477 s⁻¹ and the Km turned out to be 740 µM.

B20: SEQ ID NO: 315: GAT polypeptide (protein)
chain: B1 chain with R37G, G38S, A39T, R115S, I132T, T135V
modifications: 14_4H8
notes: GAT polypeptide
Take B20: the Kcat was found to be 3.313 s⁻¹ and the Km is 2000 µM.

B21: SEQ ID NO: 325: GAT polypeptide (protein)
chain: B1 chain with I51V, S113T, R115S, Y130F
modifications: 15_10C2
notes: GAT polypeptide
B21: the Kcat came to 1.16 s⁻¹ and the Km stood at 800 µM.

B22: SEQ ID NO: 326: GAT polypeptide (protein)
chain: B1 chain with K30M, R37G, A39T, I51V, G80E, R115S, T135V
modifications: 15_10D6
notes: GAT polypeptide
For the molecule B22, the Kcat was found to be 1.12 s⁻¹ and the Michaelis constant (Km) stood at 1000 µM.

B23: SEQ ID NO: 334: GAT polypeptide (protein)
chain: B1 chain with R37G, A39T, I51V, G80E, R115S, T135V
modifications: 15_3G11
notes: GAT polypeptide
On to B23, for which the Kcat is 1.19 s⁻¹ and the Km was determined as 1200 µM.

B24: SEQ ID NO: 310: GAT polypeptide (protein)
chain: B1 chain with R37G, A39T, I51V, E96A, R115S, S124R, E128G, T135V
modifications: 14_12D8
notes: GAT polypeptide
Regarding B24, the Kcat came out at 1.04 s⁻¹ and the Km amounted to 1000 µM.

B25: SEQ ID NO: 323: GAT polypeptide (protein)
chain: B1 chain with R37G, A39T, I51V, R115S, T135V
modifications: 14_7H9
notes: GAT polypeptide
Consider B25, for which the Kcat is 1.07 s⁻¹ and the Km amounted to 1300 µM.

B26: SEQ ID NO: 329: GAT polypeptide (protein)
chain: B1 chain with R37G, A39T, E96A, R115S
modifications: 15_12A8
notes: GAT polypeptide
Take B26: the Kcat was 1.28 s⁻¹ and the Km is 1600 µM.

B27: SEQ ID NO: 333: GAT polypeptide (protein)
chain: B1 chain with A54V, R115S, I132T, T135A, K143T
modifications: 15_3F10
notes: GAT polypeptide
Turning to B27, the Kcat was 0.812 s⁻¹ and the Km came to 900 µM.

B28: SEQ ID NO: 307: GAT polypeptide (protein)
chain: B1 chain with I51V, G80E, R115S, I132T, T135V
modifications: 14_10H3
notes: GAT polypeptide
For B28, the Kcat worked out at 1.753 s⁻¹ and the Km was determined as 600 µM.

B29: SEQ ID NO: 313: GAT polypeptide (protein)
chain: B1 chain with I51V, R115S
modifications: 14_2G11
notes: GAT polypeptide
With B29, the Kcat stood at 1.16 s⁻¹ and the Michaelis constant (Km) stood at 1400 µM.

B30: SEQ ID NO: 335: GAT polypeptide (protein)
chain: B1 chain with E14K, K30M, R37G, A39T, I51V, H57N, E96A, R115S
modifications: 15_4F11
notes: GAT polypeptide
Take B30: the Kcat was found to be 1.34 s⁻¹ and the Michaelis-Menten constant (Km) was found to be 900 µM.

B31: SEQ ID NO: 320: GAT polypeptide (protein)
chain: B1 chain with K30M, A39T, I51V, G80E, R115S, I132T, T135A
modifications: 14_7A1
notes: GAT polypeptide
As to B31, the Kcat was 2.597 s⁻¹ and the Km worked out at 1600 µM.

B32: SEQ ID NO: 319: GAT polypeptide (protein)
chain: B1 chain with I51V, Q67L, R115S, I132T
modifications: 14_7A11
notes: GAT polypeptide
Consider B32, for which the Kcat came out at 3.287 s⁻¹ and the Km is 3700 µM.

B33: SEQ ID NO: 324: GAT polypeptide (protein)
chain: B1 chain with R37G, A39T, I51V, G80E, E96A, R115S
modifications: 14_8F7
notes: GAT polypeptide
Turning to B33, the Kcat was 1.51 s⁻¹ and the Km came to 1800 µM.

B34: SEQ ID NO: 304: GAT polypeptide (protein)
chain: B1 chain with L35S, R37G, A39T, H57N, R115S, E128G, T135V
modifications: 13_8G6
notes: GAT polypeptide
With B34, the Kcat turned out to be 0.562 s⁻¹ and the Km turned out to be 610 µM.

B35: SEQ ID NO: 309: GAT polypeptide (protein)
chain: B1 chain with R37G, G38S, A39T, I51V, G80E, E96A, R115S, I132T
modifications: 14_11C2
notes: GAT polypeptide
B35: the Kcat amounted to 1.812 s⁻¹ and the Km came out at 1000 µM.
